Measurements published in publication PMC2172889.

Assays:
[1] = molecular target: epidermal growth factor receptor (human (endogenous in MDA-MB-231)) (UniProt P00533); assay: flow cytometry on cells
[2] = molecular target: epidermal growth factor receptor (human (endogenous in MDA-MB-231)) (UniProt P00533); assay: radioligand binding

- fluorescence, fold over control, at saturation [1]: 12 fold
- IC50 2 (two-site competition, site 2) [2]: 1180 nM
Substance: recombinant domain III (DIII) of the laminin-5 γ2-chain (domain or fragment)
